Data: patent US20190002562A1 (INTERVET, published 2019)
Residue numbers refer to the chain shown, from its start.

T1: HIS-tagged canine PD-1 ECD protein (canine)
T1 construct: also called PD-1 HIS; canine PD-1 ECD-HIS tagged protein; not shown: HIS tag
T1 chain: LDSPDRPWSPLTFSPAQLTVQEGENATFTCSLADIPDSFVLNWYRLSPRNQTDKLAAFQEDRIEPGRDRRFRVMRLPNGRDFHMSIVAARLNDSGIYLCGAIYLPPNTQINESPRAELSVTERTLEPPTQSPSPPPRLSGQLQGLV

T2: canine PD-1 (canine)
T2 construct: also called canine PD-1 antigen; cPD-1
T2 chain: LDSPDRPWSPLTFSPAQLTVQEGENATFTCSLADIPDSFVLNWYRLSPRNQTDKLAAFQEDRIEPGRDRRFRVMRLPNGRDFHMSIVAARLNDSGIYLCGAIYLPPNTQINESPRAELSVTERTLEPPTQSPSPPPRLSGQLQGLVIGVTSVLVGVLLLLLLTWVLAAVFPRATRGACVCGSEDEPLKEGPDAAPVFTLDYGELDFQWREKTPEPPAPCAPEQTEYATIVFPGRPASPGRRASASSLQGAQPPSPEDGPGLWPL

B1: 3B6 VH3 IgGB / VL3 (antibody, V domains shown)
VH: EVQLVQSGGDLVKPGGSVRLSCVASGYTFTTYGMSWVRQAPGKGLQWMGWINIYSGIPTYADDFKGRFTFSLDTAKNTAYLQLNSLRAEDTAVYYCTRFDGPDYWGQGTLVTVSS
VL: DIVMTQTPLSLSVSPGEPASMSCKSSQSLLNSVNQKNYLAWYRQKPGQSPQVLVYFASARVSGVPDRFIGSGSGTDFTLRISRVEADDLGVYYCQQYFSTPLTFGQGTKLELKR
notes: copies: 2 + 2
B2: can2H9 ADCC mut-2 VH4/VL3 (antibody)
heavy: EVQLVQSGGDLVKPGGSVRLSCVASGFNIKNTYMHWVRQAPGKGLQWIGRIAPANVDTKYAPKFQGKATISADTAKNTAYMQLNSLRAEDTAVYYCVLIYYDYDGDIDVWGQGTLVTVSSASTTAPSVFPLAPSCGSTSGSTVALACLVSGYFPEPVTVSWNSGSLTSGVHTFPSVLQSSGLYSLSSMVTVPSSRWPSETFTCNVAHPASKTKVDKPVPKRENGRVPRPPDCPKCPAPEMLGGPSVFIFPPKPKDTLLIARTPEVTCVVVDLDPEDPEVQISWFVDGKQMQTAKTQPREEQFAGTYRVVSVLPIGHQDWLKGKQFTCKVNNKALPSPIERTISKARGQAHQPSVYVLPPSREELSKNTVSLTCLIKDFFPPDIDVEWQSNGQQEPESKYRTTPPQLDEDGSYFLYSKLSVDKSRWQRGDTFICAVMHEALHNHYTQESLSHSPGK
light: DIVMTQTPLSLSVSLGEPASISCHASQNINVWLSWYRQKPGQIPQLLIYKASHLHTGVPDRFSGSGSGTDFTLRISRVEADDAGVYYCQQGQSWPLTFGQGTKVEIKRNDAQPAVYLFQPSPDQLHTGSASVVCLLNSFYPKDINVKWKVDGVIQDTGIQESVTEQDSKDSTYSLSSTLTMSSTEYLSHELYSCEITHKSLPSTLIKSFQRSECQRVD
notes: also called can2H9 VH4 IgGB ADCC (mut-2)/VL3; YZZ1058/Mut-2
B3: can2H9 ADCC (1062) VH4/VL3 (antibody)
heavy: B2 heavy with D271A
light: B2 light
notes: also called YZZ1062
B4: can 2H9 IgGB ADCC (1068) VH4/VL3 (antibody)
heavy: B2 heavy with P244A, D271A, A333G, P335A
light: B2 light
notes: also called can2H9 VH4 IgGB ADCC (1068)/VL3; YZZ1068
B5: Murine 2H9 (antibody, V domains shown)
VH: EVQLQQSVAELVRPGASVKLSCTASGFNIKNTYMHWIKQRPEQGLEWIGRIAPANVDTKYAPKFQGKATITADTSSNTAYMQLSTLTSEDTAIYYCVLIYYDYDGDIDVWGTGTTVTVSS
VL: DIQMNQSPSSLSASLGDTITITCHASQNINVWLSWYQQRPGNIPKLLIYKASHLHTGVPSRFSGSGSGTGFTLTISSLQPEDIATYYCQQGQSWPLTFGAGTKLELK

Experiments:
[1] = molecular target: T1, HIS-tagged canine PD-1 ECD protein; test: ELISA on the extracellular domain of canine PD-1
[2] = molecular target: T3, recombinant human CD64 protein (R&D systems) (human, UniProt P12314 16-288); test: ELISA: antibody captured on PD-1 HIS, recombinant human CD64 added
T3 construct: Bought protein; also called FcγRI; FcRγI
Description: Binding to FcRγI is a measure of the ability of an antibody to mediate ADCC. In order to assess this property for the caninized antibodies an assay to measure binding of caninized antibodies to FcγRI was conducted as follows: Coat 96-well plates with 100 μl per well of 2.5 μg/mL PD-1 HIS. Incubate at 2-7° C. overnight. Equilibrate the plates to room temp for 15 minutes. Wash plates 3× with phosphate buffered saline containing 0.05% Tween® 20 (PBST) and then block the wells using 200 μL/well of 5% NFDM (Non Fat Dried Milk). Incubate for 60 minutes at 36-38° C. Wash 3× with PBST. Make 2-fold dilution of antibodies starting at 1 μg/mL in 5% NFDM. Add 100 μL/well of diluted antibodies. Incubate for 60 minutes at 36-38° C. Wash 6× with PBST. Add 100 μL/well of recombinant human CD64 protein (R&D systems) diluted to 1 μg/mL. Incubate for 60 minutes at 36-38° C. Wash 6× with PBST. Add 100 μL/well biotinylated-anti-CD64 antibody (R&D systems) diluted to 1:3000. Incubate for 60 minutes at 36-38° C. Wash 6× with PBST. Add 100 μL/well Streptavidin-HRP antibody (R&D systems) diluted to 1:7500. Incubate for 60 minutes at 36-38° C. Wash 6× with PBST. Add 100 μL/well TMB substrate. Incubate for 10 minutes at 15-30° C. Read plates using ELISA plate reader at 450-540 nm.

canine PD-1 [3] = molecular target: T2, canine PD-1; test: SPR (Biacore T200), canine PD-1 amine-coupled, antibody as analyte, 1:1 fit; off-rate below the detection limit
canine PD-1 [4] = molecular target: T2, canine PD-1; test: SPR (Biacore T200), canine PD-1 amine-coupled, antibody as analyte, 1:1 fit

T3 sequence (P12314 16-288 limits assumed): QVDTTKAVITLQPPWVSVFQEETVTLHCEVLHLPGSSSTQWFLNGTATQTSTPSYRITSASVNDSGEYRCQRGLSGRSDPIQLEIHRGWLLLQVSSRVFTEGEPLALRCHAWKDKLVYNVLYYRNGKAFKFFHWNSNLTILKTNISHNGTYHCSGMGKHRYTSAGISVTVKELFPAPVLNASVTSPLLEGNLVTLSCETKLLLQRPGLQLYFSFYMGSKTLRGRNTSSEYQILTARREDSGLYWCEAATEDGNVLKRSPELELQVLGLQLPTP

Binder | EC50 (read off the curve) [1] [nM] | binding result [2] | further results
B1 | ~0.1 | – | –
B2 | – | binds | –
B3 | ~0.3 | no binding | –
B4 | – | no binding | –
B5 | – | – | Kd (canine PD-1 [3]): ≤ 0.2 nM; koff (canine PD-1 [3]): ≤ 5e-06 s⁻¹; kon (canine PD-1 [4]): 23000 M⁻¹ s⁻¹
